This data set deals with the molecule itself. Briefly: SDS-PAGE of thrombin-released pE2; self-association into a homodimer.

Here are results for one protein from patent US7204989 (YANG SHENG TANG, dated 2007).

Experimental: In addition, samples of the GE2 and pE2 peptides were heated at 100° C. for 3 minutes for subsequent analysis (Lanes 2 and 4) by SDS PAGE (A) and Western blotting (B and C). The molecular weight of these products were compared with markers (Lane 6)
The purified preparations of GE2 and pE2 were characterized by SDS PAGE and Western blotting techniques (FIG. 7). […] In addition, samples of the GE2 and pE2 peptides were heated at 100° C. for 3 minutes for subsequent analysis (Lanes 2 and 4) by SDS PAGE (A) and Western blotting (B and C).

B1: pE2 peptide, monomeric form (23 kD) (other)
chain: QLFYSRPVVSANGEPTVKLYTSVENAQQDKGIAIPHDIDLGESRVVIQDYDNQHEQDRPTPSPAPSRPFSVLRANDVLWLSLTAAEYDQSTYGSSTGPVYVSDSVTLVNVATGAQAVARSLDWTKVTLDGRPLSTIQQYSKTFFVLPLRGKLSFWEAGTTKAGYPYNYNTTASDQLLVENAAGHRVAISTYTTSLGAGPVSISAVAVLAPPPR
notes: Monomer obtained by dissociating the dimer; Also used for the self-association rows; also called pE2 monomer; heated pE2
As to B1, the binding result is on record as “binds”.
